Assay results from patent US20250250335A1 (SHENGHE CHINA BIOPHARMACEUTICAL, published 2025).
Read-outs that look alike come from different tables or passages of the source. Each block holds one binder with its values, some of them ahead of it.

Experiments:
[1] = target: T1, human CEACAM5-his (ACRO CE5-H5226) (human, UniProt P06731 35-685); assay: SPR (Biacore), antibody captured on CM5 chip, antigen as analyte, 1:1 model
T1 construct: Bought protein; not shown: His tag
T1 sequence (looked up): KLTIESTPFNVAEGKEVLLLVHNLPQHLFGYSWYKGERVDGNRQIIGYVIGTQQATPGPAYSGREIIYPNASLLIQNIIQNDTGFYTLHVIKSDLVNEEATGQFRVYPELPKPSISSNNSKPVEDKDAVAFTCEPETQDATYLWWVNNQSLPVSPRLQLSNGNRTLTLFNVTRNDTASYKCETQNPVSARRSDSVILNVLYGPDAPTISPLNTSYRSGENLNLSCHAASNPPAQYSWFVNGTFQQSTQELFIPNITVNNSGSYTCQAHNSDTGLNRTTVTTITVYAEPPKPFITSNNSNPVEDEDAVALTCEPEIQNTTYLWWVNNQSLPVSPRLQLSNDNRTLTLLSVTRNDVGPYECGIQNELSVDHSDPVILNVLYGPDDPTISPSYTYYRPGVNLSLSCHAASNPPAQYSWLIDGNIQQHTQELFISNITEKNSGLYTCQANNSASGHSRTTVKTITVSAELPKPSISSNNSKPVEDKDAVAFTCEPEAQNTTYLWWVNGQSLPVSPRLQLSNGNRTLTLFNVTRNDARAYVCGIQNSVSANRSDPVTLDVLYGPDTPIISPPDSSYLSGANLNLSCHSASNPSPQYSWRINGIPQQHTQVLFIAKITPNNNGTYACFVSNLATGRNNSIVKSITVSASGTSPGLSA
Procedure: (§1) The CM5 sensor chip was activated at a flow rate of 10 μL/min for 420 seconds. The channel was then injected with 30 μg/mL of anti-rat Fc IgG in 10 mM NaAc (pH 4.5) at a flow rate of 10 μL/min. The chip was inactivated with 1 M ethanolamine-hydrochloric acid (GE) for 420 seconds at a flow rate of 10 μL/min.
(§2) Candidate antibodies in running buffer 1×HBS-EP+ (10 mM HEPES, 150 mM NaCl, 3 mM EDTA, 0.05% Tween 20, pH 7.4) were captured onto Fc2 with anti-rat Fc IgG at a flow rate of 10 μL/min. The 10 nM human CEACAM5-his protein or CEACAM-6-his or CEACAM6 (AB)-his protein and running buffer were sequentially injected into Fc1-Fc2 at a flow rate of […], bound for 180 seconds, and then dissociated for 3600 seconds. 10 mM glycine (pH 1.5) was injected as regeneration buffer after each dissociation.
(§3) Result plots for the reference channel Fc1 and the buffer channel were subtracted from the test result plots. The experimental data fit the 1:1 binding model. The molecular weight of 110 KDa was used to calculate the molar concentration of CEACAM5 protein, 55 KDa for human CEACAM6-his, and 55 KDa for human CEACAM6 (AB)-his.

[2] = target: T2, human CEACAM6-his (ACRO CE6-H5223) (human, UniProt P40199 35-320); assay: as above
T2 construct: Bought protein; not shown: His tag
T2 sequence (looked up): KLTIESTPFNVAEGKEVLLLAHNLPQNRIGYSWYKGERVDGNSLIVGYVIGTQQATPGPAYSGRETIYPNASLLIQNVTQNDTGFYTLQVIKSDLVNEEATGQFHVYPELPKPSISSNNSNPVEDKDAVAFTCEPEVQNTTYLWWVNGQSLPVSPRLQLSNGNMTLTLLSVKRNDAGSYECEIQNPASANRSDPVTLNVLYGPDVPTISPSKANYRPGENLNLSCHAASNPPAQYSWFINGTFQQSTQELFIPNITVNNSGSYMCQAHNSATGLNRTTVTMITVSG
Procedure: as §1, §2, §3

Human-CEACAM6 (AB)-His [3] = target: T3, Human-CEACAM6 (AB)-His (human, UniProt P40199 145-314); assay: as above
T3 construct: Made in house, purified on a nickel column
Procedure: as §1, §2, §3

[4] = target: T1, human CEACAM5-his (ACRO CE5-H5226); assay: ELISA on coated human CEACAM5, OD450
Procedure: (§4) The binding activity of the antibodies to human CEACAM5, human CEACAM6, and human CEACAM6 (AB) proteins was detected by ELISA. The plate coated with proteins was incubated at 4° C. overnight, and the 96-well ELISA plate blocked with 2% PBS-BSA was added with the antibody to be detected and incubated at 37° C. for 1 h. After washing 3 times with PBS containing 0.05% Tween, the absorbance value of each well was read at wavelength 450 nm with the gradient-diluted mouse-derived candidate antibody as the primary antibody and anti-mouse-IgG-FC-HRP as the secondary antibody, and the absorbance value of each well was read at wavelength 450 nm after the TMB color development.

Human-CEACAM6 (AB)-His [5] = target: T3, Human-CEACAM6 (AB)-His; assay: ELISA on coated human CEACAM6 (AB), OD450
Procedure: as §4

[6] = target: T4, CEACAM5 on the surface of the tumor cells (HPAFII cells) (UniProt P06731 35-685); assay: flow cytometry on HPAFII cells (Mean-FITC); the cells carry CEACAM5 and CEACAM6, signal not divided between the two
T4 construct: whole, on cells
T4 sequence (looked up): T1 sequence (looked up)
Procedure: (§5) The antibody to be tested was taken as the initial concentration of 200 nM and diluted 5-fold with 6 gradients. The HPAFII cells (From USTC […] FOR ADVANCED STUDIES) in the incubator were taken out, and the cell suspension was transferred to a 15 mL centrifuge tube, centrifuged, and counted by resuspension in PBS. A blank control group (Blank), a negative control group (NC), an experimental group, a positive control group and the irrelevant antibody group were kept. […] The cell suspension was spread in a 96-well plate according to about 3×10⁵ cells/well. Centrifugation (1000 rpm, 5 min) was performed, followed by washing with PBS, re-centrifugation, and repeated twice to remove media residues. The supernatant was discarded, 100 μL of primary antibody solution and irrelevant antibody solution were added to the experimental group and irrelevant antibody group, respectively, and the cells were resuspended and incubated at room temperature for 1 h. The blank group, and the negative control group were incubated with an equal amount of PBS.
(§6) After 1 h, PBS was added to wash twice. After the supernatant was discarded, 100 μL of fluorescent secondary antibody dilution (Mouse-derived secondary antibody from Abcam ab6785) was added to each sample group, except for the blank group which was added with 100 μL of PBS. After incubation at room temperature and protected from light for 0.5 h, centrifugation was performed and PBS added to wash the samples twice. After the supernatant was discarded, 120 μL of PBS was added to resuspend and sequentially flow cytometry was performed to detect the mean fluorescence intensity. The concentration of the antibody was logarithmically taken as the horizontal coordinate, and the Sigmoidaldose-response (VariableSlope) method (GraphPadPrism Software, GraphPadSoftware, San Diego, California) was chosen to perform a nonlinear regression to obtain the binding activity curves of the antibody on HPAFII cells.

[7] = target: T5, CEACAM6 on the surface of the tumor cells (HPAFII cells) (UniProt P40199 35-320); assay: as above
T5 construct: whole, on cells
T5 sequence (looked up): T2 sequence (looked up)
Procedure: as §5, §6

mouse CEACAM5 = target: T6, mouse CEACAM5 (mouse, UniProt Q3UKK2 35-947, limits assumed); assay: ELISA on coated protein, OD450
T6 sequence (looked up): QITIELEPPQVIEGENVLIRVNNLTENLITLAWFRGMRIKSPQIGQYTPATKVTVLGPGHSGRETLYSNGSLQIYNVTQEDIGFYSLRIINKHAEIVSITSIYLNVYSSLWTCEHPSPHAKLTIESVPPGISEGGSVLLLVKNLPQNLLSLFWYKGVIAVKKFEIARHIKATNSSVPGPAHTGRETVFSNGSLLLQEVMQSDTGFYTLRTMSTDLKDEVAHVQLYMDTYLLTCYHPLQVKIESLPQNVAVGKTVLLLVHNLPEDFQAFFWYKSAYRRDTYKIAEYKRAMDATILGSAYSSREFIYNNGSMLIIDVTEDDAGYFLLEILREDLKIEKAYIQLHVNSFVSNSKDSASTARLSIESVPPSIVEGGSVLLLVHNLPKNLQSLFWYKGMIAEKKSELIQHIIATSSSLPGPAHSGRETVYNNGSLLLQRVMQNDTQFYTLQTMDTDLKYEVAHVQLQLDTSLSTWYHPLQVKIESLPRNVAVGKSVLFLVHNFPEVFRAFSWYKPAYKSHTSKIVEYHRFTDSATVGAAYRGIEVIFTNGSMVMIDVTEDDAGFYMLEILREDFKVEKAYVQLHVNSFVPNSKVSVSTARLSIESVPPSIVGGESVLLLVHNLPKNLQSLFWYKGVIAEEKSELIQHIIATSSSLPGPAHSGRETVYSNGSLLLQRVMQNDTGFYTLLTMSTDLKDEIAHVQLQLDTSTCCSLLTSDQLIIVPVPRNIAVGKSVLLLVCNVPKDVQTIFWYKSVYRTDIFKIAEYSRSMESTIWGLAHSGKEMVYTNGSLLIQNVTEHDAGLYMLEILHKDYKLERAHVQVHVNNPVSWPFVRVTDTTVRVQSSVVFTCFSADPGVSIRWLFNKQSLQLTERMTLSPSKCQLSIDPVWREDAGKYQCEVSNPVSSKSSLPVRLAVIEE
Procedure: The affinity of the antibodies to monkey CEACAM5, monkey CEACAM6, and mouse CEACAM5 proteins was determined by ELISA. The plates encapsulated with […] proteins were incubated at 4° C. overnight, and the antibodies to be detected were added to 96-well ELISA plates after being blocked with 2% PBS-BSA and incubated at 37° C. for 1 h. After washing 3 times with PBS containing 0.05% Tween, the absorbance value of each well was read at wavelength 450 nm with the antibody to be detected as the primary antibody and Goat anti-mouse IgG-FC-HRP as the secondary antibody, and the absorbance value of each well was read at wavelength 450 nm after the TMB color development. The specific binding to CEACAM5 and CEACAM6 of mouse and monkey was detected by Elisa method.

[8] = target: T1, human CEACAM5-his (ACRO CE5-H5226); assay: ELISA on coated human CEACAM5, OD450; remark: listed apart in the source
Procedure: as §4

T3 sequence (P40199 other isoform, or with tags, fused parts or gaps limits assumed): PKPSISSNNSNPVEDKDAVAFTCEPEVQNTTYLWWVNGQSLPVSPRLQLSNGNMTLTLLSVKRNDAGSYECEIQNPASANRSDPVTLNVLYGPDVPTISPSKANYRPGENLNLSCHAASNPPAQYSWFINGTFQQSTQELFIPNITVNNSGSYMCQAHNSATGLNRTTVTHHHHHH

B2: Antibody 8 (antibody, V domains shown)
VH: EVQLRQSGPELVRPGASMKISCKASGYSFTAYTMTWVKQSHGKILEWIGLIAPYHGGTVYNQKFKGKATLTVDKSSSTAYMELLSLTSEDSAIYYCAGGASSGFVTWFAYWGQGTLVTVSA
VL: DIQMTQSPASLSASVGETVTITCGASENIYGALNWYQRKQGKSPQVLIYGATNLADGTSSRFSGSGSGRQYSLKINSLHPDDVATYYCQNVLSTPYTFGGGTKLEIK
notes: Mouse-derived hybridoma antibody; also called mouse-derived antibody 8
- EC50 (read off the curve) [4]: ~0.01 µg/mL
- EC50 (read off the curve) (Human-CEACAM6 (AB)-His [5]): ~0.02 µg/mL
- EC50 (read off the curve) [6]: ~2 nM
- EC50 (read off the curve) [7]: ~2 nM

B3: Antibody 7 (antibody, V domains shown)
VH: QIQLVQSGPELKKPGETVKISCKASGYTFTDYGMNWVKQAPGKGLKWMGWINTYTGEPTYPDDFKGRFAFSLETSATTAYLQINNLKNEDTATYFCSRGDLLVRLDNWGQGTTLTVSS
VL: DIQMTQSPSSLSASLGGKVTITCKASQDINKYISWYQHKPGKGPRLLIHYTSTLQSGIPSRFSGSGSGRDYSFSISNLEPEDIATYYCLQYDYLRTFGGGTKLEIK
notes: Mouse-derived hybridoma antibody; also called mouse-derived antibody 7
- EC50 (read off the curve) (Human-CEACAM6 (AB)-His [5]): ~0.01 µg/mL
- EC50 (read off the curve) [6]: ~2 nM
- EC50 (read off the curve) [7]: ~2 nM

B5: Antibody 13 (antibody, V domains shown)
VH: EVKLVESGGGLVQPGGSLSLSCTASGFTLTDYYMSWVRQPPGRALEWLALIRNKVNGYTIEYSASVKGRFTISRDNSQSILYLQMNALRAEDSATYYCARDIGIRWYFDVWGAGTTVTVSS
VL: QIVLSQSPAILSASPGEKVTMTCRASSSVSYMHWYQQKPGSSPKPWIYATSNLASGVPARFSGSGSGTSYSLTISRMEAEDAATYYCQQWSGNPPTFGGGTKLEIK
notes: Mouse-derived hybridoma antibody; also called mouse-derived antibody 13
- OD (mouse CEACAM5): 0.15 OD
- EC50 (read off the curve) [8]: ~0.03 µg/mL
- EC50 (read off the curve) (Human-CEACAM6 (AB)-His [5]): ~0.02 µg/mL
- Kd [1]: 1.36 nM
- Kd [2]: 37.4 nM
- Kd (Human-CEACAM6 (AB)-His [3]): 4.51 nM

More lines, now with the values ahead:

- Kd [1]: 7.64 nM
- Kd [2]: 3.83 nM
- Kd (Human-CEACAM6 (AB)-His [3]): < 0.001 nM
B1: Antibody 15 (antibody, V domains shown)
VH: QVQLQQPGAELVKPGASVTLSCKASGYTFTSYWINWVKQRPGQGLEWIGNIYPYTSSSNYNEKFKGKATLTVDTSSNTAYMQLSGLTSDDSAVYFCARKGNIYYSYESYPLDFWGQGTSVTVSS
VL: DIQMTQSSSSFSVSLGDRVTITCKASEDIYKQIGWYQQKPGNAPRLLIAGATSLETGVPSRFSGSGSGKDYMLNITSLQTEDVGSYYCQQYWSPPFTFGSGTKLEIK
notes: Mouse-derived hybridoma antibody; also called mouse-derived antibody 15

- Kd [1]: < 0.001 nM
- Kd [2]: 19.7 nM
- Kd (Human-CEACAM6 (AB)-His [3]): 117 nM
B4: Antibody B (antibody, human IgG1, kappa, V domains shown)
VH: EVQLVESGGGLVQPGGSLRLSCAASEFTLIDYYMSWVRQAPGKGLEWVGYIRNKVNGHTTDYIASVKGRFTISRDDSKNSLYLQMNSLKTEDTAVYYCARDPGINWYFDVWGQGTLVTVSS
VL: EIVLTQSPATLSLSPGERATLSCRASSRVTYMHWYQQKPGQSPRPLISATSNLASGIPARFSGSGSGTDYTLTISSLEPEDFAVYYCQQWSYNPPTFGGGTKLELKR
notes: Humanized form of mouse-derived antibody 2 on a human IgG framework; also called humanized antibody B
